Test results: publication PMC10639050, “ZNF432 stimulates PARylation and inhibits DNA resection to balance PARPi sensitivity and resistance”

Legend:
ZNF432 KRAB domain = ZNF432 KRAB domain (Homo sapiens, UniProt O94892 1-205); test: EMSA; negligible binding; 1-6 nM protein, no fixation; 25 mM MOPS pH 7.0, 60 mM KCl, 0.2% Tween, 2 mM DTT, CaCl2 (40 nM as printed with glutaraldehyde fixation; 1 mM without fixation for Kd), 37 C 30 min; 8% TBE acr; conditions: protein: recombinant; tags: His (GST removed with PreScission); label: 32P (gamma-32P); single strand
ZNF432 full-length = ZNF432 full-length (Homo sapiens, UniProt O94892 1-652); test: EMSA; no fixation, 1 mM CaCl2; 100 nM DNA stated, protein 1-6 nM; 25 mM MOPS pH 7.0, 60 mM KCl, 0.2% Tween, 2 mM DTT, CaCl2 (40 nM as printed with glutaraldehyde fixation; 1 mM without fixation for Kd), 37 C 30 min; 8% TBE acr; conditions: protein: recombinant; tags: C-terminal 10xHis (GST removed with PreScission); label: 32P (gamma-32P); single strand
Sequence of ZNF432 full-length (O94892 whole entry): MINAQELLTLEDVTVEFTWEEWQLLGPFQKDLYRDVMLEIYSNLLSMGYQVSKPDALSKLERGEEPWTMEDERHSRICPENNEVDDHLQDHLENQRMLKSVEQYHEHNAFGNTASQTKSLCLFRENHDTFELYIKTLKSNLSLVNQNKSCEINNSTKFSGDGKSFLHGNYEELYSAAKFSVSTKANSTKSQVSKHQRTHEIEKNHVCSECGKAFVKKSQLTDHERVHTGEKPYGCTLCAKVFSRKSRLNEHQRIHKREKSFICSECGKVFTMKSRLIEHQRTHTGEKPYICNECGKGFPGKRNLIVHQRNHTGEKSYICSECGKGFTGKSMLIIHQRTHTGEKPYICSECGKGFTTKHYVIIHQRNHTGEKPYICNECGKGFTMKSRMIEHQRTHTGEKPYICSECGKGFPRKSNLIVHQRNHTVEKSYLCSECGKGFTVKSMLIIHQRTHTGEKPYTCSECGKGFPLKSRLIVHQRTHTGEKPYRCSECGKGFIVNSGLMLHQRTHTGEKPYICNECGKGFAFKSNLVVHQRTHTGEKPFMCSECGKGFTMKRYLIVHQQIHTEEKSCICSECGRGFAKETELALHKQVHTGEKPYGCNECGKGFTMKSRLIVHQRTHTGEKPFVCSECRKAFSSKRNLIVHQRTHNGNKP

Sequence of ZNF432 KRAB domain (O94892 1-205): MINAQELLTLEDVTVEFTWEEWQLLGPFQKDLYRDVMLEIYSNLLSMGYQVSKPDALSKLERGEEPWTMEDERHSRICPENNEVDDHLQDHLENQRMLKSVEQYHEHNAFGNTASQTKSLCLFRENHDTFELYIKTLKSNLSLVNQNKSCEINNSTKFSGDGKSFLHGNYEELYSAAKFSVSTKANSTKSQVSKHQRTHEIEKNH

B1: Single-stranded DNA (ssDNA)
DNA: GGGCGAATTGGGCCCGACGTCGCATGCTCCTCTAGACTCGAGGAATTCGGTACCCCGGGTTCGAAATCGATAAGCTTACAGTCTCCATTTAAAGGACAAG
binding result (ZNF432 KRAB domain): no binding | Kd (ZNF432 full-length): 5.41 nM
